Where a chain is given by its changes, count along the chain named.
T1: AtPhos32 (At5g54430)
T1 chain: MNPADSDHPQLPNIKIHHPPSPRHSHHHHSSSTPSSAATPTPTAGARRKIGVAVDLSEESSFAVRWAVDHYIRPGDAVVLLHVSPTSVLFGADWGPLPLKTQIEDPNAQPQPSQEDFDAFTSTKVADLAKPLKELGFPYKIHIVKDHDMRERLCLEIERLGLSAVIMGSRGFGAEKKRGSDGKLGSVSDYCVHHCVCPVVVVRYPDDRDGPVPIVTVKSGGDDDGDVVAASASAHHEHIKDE

T2: AtPhos34 (At4g27320)
T2 chain: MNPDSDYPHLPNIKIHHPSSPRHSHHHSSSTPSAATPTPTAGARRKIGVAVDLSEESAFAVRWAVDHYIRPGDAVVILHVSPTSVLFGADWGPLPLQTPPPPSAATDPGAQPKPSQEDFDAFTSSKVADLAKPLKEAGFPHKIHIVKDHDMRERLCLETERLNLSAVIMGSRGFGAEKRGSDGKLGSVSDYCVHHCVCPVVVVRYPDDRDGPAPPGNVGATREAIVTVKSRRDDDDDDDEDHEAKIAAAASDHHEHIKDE

T3: GST fusion containing the first 46 amino acids of Phos32
T3 chain: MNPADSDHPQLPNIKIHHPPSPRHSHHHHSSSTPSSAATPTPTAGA

T4: Phos32 with serine S21 mutated to alanine
T4 chain: T1 chain with S21A

T5: Myelin Basic Protein (MBP) Bovine P02687
T5 chain: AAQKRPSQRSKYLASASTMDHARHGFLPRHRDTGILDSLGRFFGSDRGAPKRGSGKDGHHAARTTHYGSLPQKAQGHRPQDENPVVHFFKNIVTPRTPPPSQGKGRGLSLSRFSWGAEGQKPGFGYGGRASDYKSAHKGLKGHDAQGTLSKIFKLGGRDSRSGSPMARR

T6: Phos32 with serine S21 mutated to aspartic acid
T6 chain: T1 chain with S21D

B1: AtMPK3 (protein)
chain: MNTGGGQYTDFPAVETHGGQFISYDIFGSLFEITSKYRPPIIPIGRGAYGIVCSVLDTETNELVAMKKIANAFDNHMDAKRTLREIKLLRHLDHENIIAIRDVVPPPLRRQFSDVYISTELMDTDLHQIIRSNQSLSEEHCQYFLYQLLRGLKYIHSANIIHRDLKPSNLLLNANCDLKICDFGLARPTSENDFMTEYVVTRWYRAPELLLNSSDYTAAIDVWSVGCIFMELMNRKPLFPGKDHVHQMRLLTELLGTPTESDLGFTHNEDAKRYIRQLPNFPRQPLAKLFSHVNPMAIDLVDRMLTFDPNRRITVEQALNHQYLAKLHDPNDEPICQKPFSFEFEQQPLDEEQIKEMIYQEAIALNPTYG
B2: AtMPK6 (protein)
chain: MDGGSGQPAADTEMTEAPGGFPAAAPSPQMPGIENIPATLSHGGRFIQYNIFGNIFEVTAKYKPPIMPIGKGAYGIVCSAMNSETNESVAIKKIANAFDNKIDAKRTLREIKLLRHMDHENIVAIRDIIPPPLRNAFNDVYIAYELMDTDLHQIIRSNQALSEEHCQYFLYQILRGLKYIHSANVLHRDLKPSNLLLNANCDLKICDFGLARVTSESDFMTEYVVTRWYRAPELLLNSSDYTAAIDVWSVGCIFMELMDRKPLFPGRDHVHQLRLLMELIGTPSEEELEFLNENAKRYIRQLPPYPRQSITDKFPTVHPLAIDLIEKMLTFDPRRRITVLDALAHPYLNSLHDISDEPECTIPFNFDFENHALSEEQMKELIYREALAFNPEYQQ

Columns and labels:
[1] = target: T1, AtPhos32 (At5g54430)
[2] = target: T2, AtPhos34 (At4g27320)
[3] = target: T3, GST fusion containing the first 46 …
[4] = target: T4, Phos32 with serine S21 mutated to …
[5] = target: T5, Myelin Basic Protein (MBP) Bovine P02687
[6] = target: T6, Phos32 with serine S21 mutated to …

Row | Protein | in-solution kinase assays with 32P-gammaATP [1] | level of phosphorylation in an in vitro kinase assay [1] | in-solution kinase assays with 32P-gammaATP [2] | in vitro kinase assay [3] | in vitro kinase assay [4] | level of phosphorylation in an in vitro kinase assay [5] | in vitro kinase assay [6]
1 | B1 | we found that these proteins are excellent MAP kinase substrates | Phos32 is at least as good if not a better substrate than MBP for this MAP Kinase | we found that these proteins are excellent MAP kinase substrates | the first 46 amino acids of Phos32 protein are sufficient for MAP kinase recognition and phosphorylation | mutation of this residue to alanine or aspartic acid abolishes phosphorylation by MAPKs | we used 2 µg of MBP in an in vitro kinase assay with AtMPK3 and compared the level of phosphorylation | mutation of this residue to alanine or aspartic acid abolishes phosphorylation by MAPKs
2 | B2 | we found that these proteins are excellent MAP kinase substrates |  | we found that these proteins are excellent MAP kinase substrates | the first 46 amino acids of Phos32 protein are sufficient for MAP kinase recognition and phosphorylation | mutation of this residue to alanine or aspartic acid abolishes phosphorylation by MAPKs |  | mutation of this residue to alanine or aspartic acid abolishes phosphorylation by MAPKs

From patent US20080148430
